Data set [1] deals with the molecule itself. As to the kind of experiment: switchSENSE; His-tagged protein (500 nM) captured on NTA3-functionalised DNA nanolevers; the same protein as analyte at 3.75-15 uM; PBS pH 7.5, 1 mM TCEP, 37 C; static measurement mode; global mono-exponential fits; self-association.
Data set [2] concerns the molecule itself.

Binding result and Kd data for one protein are collected here from paper PMC9222203, “A Robust Assay to Monitor Ataxin-3 Amyloid Fibril Assembly” (Cells, 2022).

B1: Ataxin-3 Josephin domain (domain or fragment, human, UniProt P54252-2 1-180, looked up)
chain: MESIFHEKQEGSLCAQHCLNNLLQGEYFSPVELSSIAHQLDEEERMRMAEGGVTSEDYRTFLQQPSGNMDDSGFFSIQVISNALKVWGLELILFNSPEYQRLRIDPINERSFICNYKEHWFTVRKLGKQWFNLNSLLTGPELISDTYLALFLAQLQQEGYSIFVVKGDLPDCEADQLLQM
notes: Josephin domain of human ataxin-3 (UniProt P54252-2); A TEV site lies downstream of the His tag; no cleavage described; captured by its His tag in switchSENSE; also called Atx3 JD; JD; source: E. coli BL21(DE3)-SI, purified (Ni2+ IMAC, Sephacryl S-300 SEC); not shown: His6, N-terminal, kept
A word on the Kd: it is the constant that tells how readily two partners part at equilibrium. Low readings indicate higher affinity, high ones lower affinity. As for B1, the binding result in data set [1] is reported as “binds”. In data set [2], the Kd was 4.6 µM.
